Experiment [1] deals with T1, His-TEV LRRC4B.
T1 sequence (Q9NT99 whole entry, species assumed, looked up): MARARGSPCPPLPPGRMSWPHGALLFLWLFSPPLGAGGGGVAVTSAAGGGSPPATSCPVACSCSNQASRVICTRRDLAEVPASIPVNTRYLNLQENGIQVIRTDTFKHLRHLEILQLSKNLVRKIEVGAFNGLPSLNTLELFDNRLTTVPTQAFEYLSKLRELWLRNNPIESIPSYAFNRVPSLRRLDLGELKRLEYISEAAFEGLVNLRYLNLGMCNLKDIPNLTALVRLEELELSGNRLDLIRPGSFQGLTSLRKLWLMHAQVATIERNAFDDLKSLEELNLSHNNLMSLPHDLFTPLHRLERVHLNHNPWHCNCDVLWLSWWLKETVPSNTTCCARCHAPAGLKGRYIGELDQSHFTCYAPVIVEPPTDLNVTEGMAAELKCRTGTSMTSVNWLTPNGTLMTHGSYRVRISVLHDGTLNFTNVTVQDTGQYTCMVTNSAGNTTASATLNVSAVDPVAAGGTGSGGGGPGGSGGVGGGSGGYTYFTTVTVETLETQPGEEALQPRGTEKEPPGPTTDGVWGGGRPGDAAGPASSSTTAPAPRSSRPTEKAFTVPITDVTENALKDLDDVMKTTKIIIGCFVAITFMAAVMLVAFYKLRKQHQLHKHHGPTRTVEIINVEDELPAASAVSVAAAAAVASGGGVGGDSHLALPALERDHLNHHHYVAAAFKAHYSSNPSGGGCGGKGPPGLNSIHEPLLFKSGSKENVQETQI
In words: ELISA; captured by His-TEV LRRC4B, detected by HRP-conjugated C-A5-Ab. (In an ELISA, binding on a coated surface is turned into a signal by an enzyme label.)

For experiment [2], the target named is T1, His-TEV LRRC4B. The experiment is described as follows: ELISA; competition: LRRC4B-PTPRF complex in the presence of FAM19A5; captured by His-TEV LRRC4B, detected by HRP-conjugated anti-human IgG Fc.
Experiment [3] concerns the target T2, His-TEV LRRC4B.
T2 chain: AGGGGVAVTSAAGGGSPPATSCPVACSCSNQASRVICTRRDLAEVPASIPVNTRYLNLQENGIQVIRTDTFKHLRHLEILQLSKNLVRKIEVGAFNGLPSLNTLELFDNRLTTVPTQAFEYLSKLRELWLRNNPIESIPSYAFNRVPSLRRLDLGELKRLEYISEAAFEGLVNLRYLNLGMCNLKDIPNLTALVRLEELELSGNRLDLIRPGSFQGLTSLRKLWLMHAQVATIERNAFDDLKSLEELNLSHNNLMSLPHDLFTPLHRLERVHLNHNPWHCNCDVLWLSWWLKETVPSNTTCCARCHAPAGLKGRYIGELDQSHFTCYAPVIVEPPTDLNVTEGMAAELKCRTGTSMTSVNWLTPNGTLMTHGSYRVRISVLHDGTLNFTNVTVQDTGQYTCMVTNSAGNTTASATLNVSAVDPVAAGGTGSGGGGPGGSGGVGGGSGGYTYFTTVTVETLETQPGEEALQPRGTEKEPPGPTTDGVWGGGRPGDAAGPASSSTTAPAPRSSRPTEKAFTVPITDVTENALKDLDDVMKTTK
In words: competition ELISA (dissociation of LRRC4B-PTPRF complex). Particulars: chain shown with the change; read at the highest FAM19A5 concentration, about 1e4 nM; signal is PTPRF remaining bound to His-TEV LRRC4B, so a lower OD means more displacement by FAM19A5 …; parent: est. 0.16; read off a plot.

Experiment [4] concerns the target T3, recombinant FAM19A5 (family with sequence similarity 19 member A5) (UniProt Q7Z5A7 44-132).
T3 construct: FAM19A5 (TAFA5), secretory protein; also called TAFA5; WT FAM19A5; source: recombinant
The experiment is described as follows: ELISA; competition: FAM19A5 captured by LRRC4B(36–576)-hFc in the presence of inhibitor, detected by HRP-conjugated C-A5-Ab. Particulars: both partners purified.

From paper PMC12281766, “Inhibition of FAM19A5 reverses synaptic loss and cognitive decline in mouse models of Alzheimer’s disease” (Alzheimer's Research & Therapy, 2025) come the findings set out here.

T3 sequence (Q7Z5A7 44-132): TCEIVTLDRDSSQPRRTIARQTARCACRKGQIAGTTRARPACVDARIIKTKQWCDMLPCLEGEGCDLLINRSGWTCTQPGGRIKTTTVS

The molecule “MT FAM19A5 (R58A, R59A) (from UniProt Q7Z5A7 44-132) (natural protein)” came in with an EC50 in the experiment with His-TEV LRRC4B [1] of 0.595 nM. That is a sub-nanomolar value.
In the experiment with His-TEV LRRC4B [1], “recombinant FAM19A5 (family with sequence similarity 19 member A5) (from UniProt Q7Z5A7 44-132) (natural protein)” had an EC50 of 0.41 nM. For the same molecule, in the experiment with His-TEV LRRC4B [2], the IC50 came to 281 nM.

B1: recombinant FAM19A5 (family with sequence similarity 19 member A5), Q7Z5A7 R58A; R59A; R125A; K127A (protein)
chain: TCEIVTLDRDSSQPAATIARQTARCACRKGQIAGTTRARPACVDARIIKTKQWCDMLPCLEGEGCDLLINRSGWTCTQPGGAIATTTVS
As for B1, the response with His-TEV LRRC4B [3] was 0.52 OD (450 nm).

B2: LRRC4B(453–576)-hFc (Fc fusion, UniProt Q9NT99 453-576, looked up)
chain: VSAVDPVAAGGTGSGGGGPGGSGGVGGGSGGYTYFTTVTVETLETQPGEEALQPRGTEKEPPGPTTDGVWGGGRPGDAAGPASSSTTAPAPRSSRPTEKAFTVPITDVTENALKDLDDVMKTTK
notes: also called WT FB-containing protein; FB protein; source: recombinant
As to B2, the IC50 in experiment [4] is 8.1 nM.

As a reminder, the EC50 is the concentration at which the effect is half-maximal. As a reminder, the IC50 is the concentration that inhibits the measured activity by half.
